Measured values as given in PMC3935999, “Post-Translational Modifications Modulate Ligand Recognition by the Third PDZ Domain of the MAGUK Protein PSD-95” (PLoS ONE, 2014).

What was measured:
[1] = target: KKETAV hexapeptide (optimised consensus C-terminal ligand of PSD-95 PDZ3); assay: ITC (MicroCal ITC-200); conditions: pH 7.5, 25 °C, no added salt stated (50 mM potassium phosphate only)
[2] = target: KKETAV hexapeptide (optimised consensus C-terminal ligand of PSD-95 PDZ3); assay: ITC (quoted from ref. 19, Saro et al. 2007); conditions: pH 6.0, 25 °C, 10 mM NaCl, 20 mM MES; cited from earlier work
CRIPT (Homo sapiens) [3] = assay: ITC; conditions: cited from earlier work
KKETAV peptide = assay: ITC; conditions: cited from earlier work
CRIPT (Homo sapiens) [4] = assay: ITC; conditions: cited from earlier work; remark: listed apart in the source
CRIPT (Homo sapiens) [5] = assay: ITC; conditions: cited from earlier work; remark: listed apart in the source
[6] = target: T1, Δ10ct-PDZ3 (PSD-95 residues 302-393, without the α3 helix) (UniProt P31016 302-393); assay: ITC; KKETAV (900 µM; 3 mM for D332P-PDZ3) injected into the protein in the cell (70 µM; 200 µM for D332P-PDZ3); 25°C; 50 mM potassium phosphate pH 7.5; single set of identical sites model; conditions: both partners purified
T1 construct: PSD-95 third PDZ domain truncated of its ten C-terminal residues (α3 helix), residues 302-393 of the full PSD-95 protein; 15N-labelled for NMR; source: E. coli BL21/DE3, purified

[7] = target: T2, PDZ3 domain of PSD-95 (wild type, residues 302-403) (UniProt P31016 302-403); assay: as above; conditions: both partners purified
T2 construct: Postsynaptic density protein-95 (PSD-95; SAP-90; DLG-4), third PDZ domain with the α3 helix, residues 302-403 of the full PSD-95 protein; PDB 1BE9 is a longer construct of the same domain; 15N-labelled for NMR; also called PSD-95-PDZ3; WT-PDZ3; source: E. coli BL21/DE3, purified
T2 sequence (P31016 302-403): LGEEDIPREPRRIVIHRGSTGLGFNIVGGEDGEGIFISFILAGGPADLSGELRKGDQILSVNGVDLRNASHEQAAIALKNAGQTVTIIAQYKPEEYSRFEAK

T1 sequence (P31016 302-393, stated change not applied): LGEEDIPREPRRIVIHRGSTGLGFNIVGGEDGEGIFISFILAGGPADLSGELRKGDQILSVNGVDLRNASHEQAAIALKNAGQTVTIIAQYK

In the case of “PSD-95 (DLG4/SAP-90) third PDZ domain, PDZ3, wild type”, the ΔG [1] is given as -8 kcal/mol, the Kd [2] is given as 450 nM and the ΔG [2] is given as -8.7 kcal/mol.

In the case of PSD-95 PDZ3 (from UniProt P78352), the Kd (CRIPT (Homo sapiens) [3]) is listed as 14000 nM, the Kd (KKETAV peptide) is listed as 450 nM and the Kd (CRIPT (Homo sapiens) [4]) is listed as 1000 nM. For the same molecule, the Kd (CRIPT (Homo sapiens) [5]) was 3600 nM.

B1: KKETAV hexapeptide (peptide)
peptide: KKETAV
notes: residues numbered from 0 (C-terminal Val) to -5 (N-terminal Lys); also called KKETAV ligand; consensus hexapeptide; source: bought: Peptide 2.0 (USA)
In the case of B1, the Kd [6] is reported as 3600 nM, the dH [6] is reported as -8.8 kcal/mol and the “stoichiometry N” value [6] is reported as 0.9. The “stoichiometry N” value [7] was 0.99.
